Where no end group is shown, it is not given here. [ ]: non-standard residue; d: D form.

Experiment [1] has as its target T1, soluble four domain CD4 (sCD4) (UniProt P01730 26-394, limits assumed).
T1 construct: domain: soluble four domain CD4; also called soluble CD4
In words: SPR, sCD4 surface. On the technique in general: Surface plasmon resonance follows binding to a sensor surface in real time, without labels.

Experiment [2] deals with HIV-1BaL envelope glycoprotein on pseudotyped virus (HIV-1 strain BaL). In words: cell-based or functional assay.
For experiment [3], the target named is T2, HIV-1YU2 gp120 (HIV-1 strain YU-2, UniProt P35961 32-498, limits assumed).
T2 construct: domain: gp120
Description: ELISA and SPR competition; gp120 binding to sCD4. (In an ELISA, binding on a coated surface is turned into a signal by an enzyme label.)

Experiment [4] concerns the target T2, HIV-1YU2 gp120. In words: competition ELISA: sCD4 (0.1 µg/ml) with peptide on plate-coated YU-2 gp120; blocked ligand sCD4 (diamonds per the legend).
The target in experiment [5] is T2, HIV-1YU2 gp120. In words: competition ELISA: mAb 17b (0.1 µg/ml) with peptide on plate-coated YU-2 gp120; blocked ligand mAb 17b (the UM10 curve that is not diamonds).
The target in experiment [6] is T1, soluble four domain CD4 (sCD4). In words: SPR, immobilized sCD4.
For the next experiment, the target named is T3, HIV-1 92UG037-08 gp120 (HIV-1 strain 92UG037-08).
T3 construct: domain: gp120; also called 92UG037-08 (A); 92Ugo37-08 gp120
In words: SPR direct binding; gp120 immobilized, peptide as analyte.

Experiment [7] has as its target HIV-1 gp120 on envelope-pseudotyped luciferase-reporter virus (strain not stated, Example 8) (HIV-1, strain ). In words: cell-based or functional assay.
In experiment [8] the target is T2, HIV-1YU2 gp120. In words: SPR competition; gp120 binding to mAb 17b.
Description: (§1) All surface plasmon resonance experiments (SPR) were performed on a BIA3000 optical biosensor (Biocore, Inc., Uppsala, Sweden). […] The indicated analytes were passed over the surfaces at a flow rate of 50 μL/minute, with 2.5 minute association phase and 2.5 minute dissociation phase.
In experiment [9] the target is T2, HIV-1YU2 gp120. Description: SPR competition; gp120 binding to CD4.
Description: as §1
Experiment [10] has as its target T2, HIV-1YU2 gp120. In words: ITC; peptide titrated into gp120, 25 °C, PBS pH 7.4. On the technique in general: ITC needs no label: the signal is the heat of the interaction.
Description: The solutions contained within the calorimetric cells and injector syringes were prepared in PBS, pH 7.4 and thoroughly degassed to avoid bubble formation in the calorimetric cell. The heat evolved upon each injection of the peptide solution was obtained from the integral of the calorimetric signal. The heat associated with binding of a ligand to the protein in the cell was obtained by subtracting the heat of dilution from the heat of reaction. Heats of dilution due to mismatch between the syringe and cell solutions were negligible in all experiments.
Experiment [11] deals with T2, HIV-1YU2 gp120. Description: SPR direct binding; YU-2 gp120 immobilized (~3500 RU), peptide as analyte.
Description: Surface plasmon resonance (SPR) interaction analyses were performed on a Biacore® 3000 optical biosensor (GE). All experiments were carried out at 25° C. using standard PBS, pH 7.4, with 0.005% Surfactant P20.
Regeneration of the surface was achieved by a one 5-second pulse of 10 mM glycine, pH 1.5.
Experiment [12] addresses T2, HIV-1YU2 gp120. In words: ITC; peptide titrated into gp120, 25 °C, PBS pH 7.4; ITC, 25° C. in PBS, pH 7.4.
Description: Data was obtained as 25° C. in PBS, pH 7.4.
The solutions contained within the calorimetric cells and injector syringes were prepared in PBS, pH 7.4 and thoroughly degassed to avoid bubble formation in the calorimetric cell. The heat evolved upon each injection of the peptide solution was obtained from the integral of the calorimetric signal. The heat associated with binding of a ligand to the protein in the cell was obtained by subtracting the heat of dilution from the heat of reaction.
Experiment [13] concerns the target T2, HIV-1YU2 gp120. In words: SPR direct binding, YU2 gp120 (Example 8); Example 8 determination.
For experiment [14], the target named is T2, HIV-1YU2 gp120. Description: SPR competition; gp120 binding to mAb 17b; Example 8, Table 9.
Experiment [15] addresses T2, HIV-1YU2 gp120. In words: SPR direct binding; YU-2 gp120 immobilized (~3500 RU), peptide as analyte; Example 9; SPR direct binding, peptide over immobilized gp120.
The target in experiment [16] is T2, HIV-1YU2 gp120. In words: competition ELISA: IgG b12 with UM17 on immobilized YU-2 gp120; blocked ligand b12.

Description for HIV-1 92UG037-08 gp120: as §1
Data analysis was performed using BIAEvaluation® 4.0 software (Biacore Inc., NJ). The responses of a buffer injection and responses from the control surface to which the mAb 2B6R was immobilized, were subtracted to account for nonspecific binding. Experimental data were fitted to a simple 1:1 Langmuir binding model with a parameter included for mass transport. The average kinetic parameters (association [kₐ] and dissociation [kd] rates) generated from a minimum of four datasets were used to define equilibrium association (KA) and dissociation constants (KD).

What is called IC50 is the concentration at which inhibition is half-maximal. Higher therefore signals a need for much substance. As to [Azp‑triazole‑ferrocene]WSEAMM (also called PWSEAMM) [UM10], the binding result in [1] is given as “no binding”. In experiment [2], the “IC50 (µM), pseudotyped HIV-1BaL infection of HOS.CD4.CCR5 cells” value (“IC50 (µM) … of HOS.CD4.CCR5 cells” for short) was found to be 35 µM. For the same molecule, the IC50 with HIV-1YU2 gp120 [3] is above 10 µM. The “IC50 (read off the curve)” value with HIV-1YU2 gp120 [4] was around 2 µM; in the experiment with HIV-1YU2 gp120 [5] it was around 0.2 µM.

B1: HNG-156 (peptide)
peptide: RINNIPWSEAMM
modifications: proline 6 is a 1,2,3-triazole-modified proline (from cis-4-azidoproline, Azp) 4-substituted with ferrocene
A word on the Kd: it is the free concentration of one partner at which half of the binding sites on the other are occupied at equilibrium, for simple one-to-one binding. On to B1, for which, in experiment [6], the binding result was “no binding (tested: 10 to 600 nM)”. For the same molecule, in the experiment with HIV-1 92UG037-08 gp120, binding was put at a Kd of 0.0163 µM.

RINNI[Azp‑triazole‑ferrocene]WS-NH2 (Rink amide resin) [UM11]: the “IC50 (µM), pseudotype virus cell infection assay” value in experiment [7] was 10.7 µM. Also, the “IC50 (µM) … of HOS.CD4.CCR5 cells” value in [2] was 4 µM. The molecule further gave an IC50 with HIV-1YU2 gp120 [8] of 0.168 µM.

With EINNI[Azp‑triazole‑ferrocene]WS-NH2 (Rink amide resin) [UM13], the “IC50 (µM), pseudotype virus cell infection assay” value in experiment [7] stood at 3.2 µM. In addition, the “IC50 (µM) … of HOS.CD4.CCR5 cells” value in experiment [2] came out at 1.2 µM. In the experiment with HIV-1YU2 gp120 [9], this molecule registered a concentration for half-maximal inhibition (IC50) of 0.079 µM.

Consider RINNI[Azp‑triazole‑ferrocene]W (also called RINNIPW) [UM12], for which the binding result in experiment [1] is reported as “no binding”. Besides, the “IC50 (µM), pseudotype virus cell infection assay” value in experiment [7] turned out to be 12.5 µM. The “IC50 (µM) … of HOS.CD4.CCR5 cells” value in [2] is 6.8 µM. Further, the IC50 came to 0.124 µM with HIV-1YU2 gp120 [9] and 0.218 µM with HIV-1YU2 gp120 [8]. For the same molecule, the “-TΔS” value with HIV-1YU2 gp120 [10] is 9.9 kcal/mol. Moreover, in the experiment with HIV-1YU2 gp120 [10], the ΔH is -19.7 kcal/mol.

For the molecule INNI[Azp‑triazole‑ferrocene]WS-NH2 (Rink amide resin; also called INNIPWS) [UM21], the “IC50 (µM), pseudotype virus cell infection assay” value in [7] turned out to be 7.4 µM. For the same molecule, in [2], the “IC50 (µM) … of HOS.CD4.CCR5 cells” value came out at 7.4 µM. This molecule yielded an IC50 with HIV-1YU2 gp120 [9] of 0.086 µM.

As a reminder, the koff is the rate constant with which the complex falls apart. The low end stands for slow dissociation, the high end for fast dissociation. As a reminder, the kon is the second-order rate constant of association. A low value points to slow association. With KNNI[Azp‑triazole‑ferrocene]WS (also called KNNIPWS) [UM27], the “IC50 (µM) … of HOS.CD4.CCR5 cells” value in experiment [2] is 23 µM. In the experiment with HIV-1YU2 gp120 [9], this molecule gave an IC50 of 0.128 µM. In the experiment with HIV-1YU2 gp120 [8], this molecule yielded an IC50 of 0.197 µM. In the experiment with HIV-1YU2 gp120 [11], this molecule had a koff of 0.0088 s⁻¹ and an association rate constant (kon) of 590000 M⁻¹ s⁻¹.

For FNNI[Azp‑triazole‑ferrocene]WS-NH2 (Rink amide resin; also called FNNIPWS) [UM28], the “IC50 (µM), pseudotype virus cell infection assay” value in [7] was determined as 11 µM. In addition, the “IC50 (µM) … of HOS.CD4.CCR5 cells” value in experiment [2] worked out at 13 µM. Also, the IC50 with HIV-1YU2 gp120 [9] worked out at 0.105 µM. Moreover, in the experiment with HIV-1YU2 gp120 [8], the IC50 was 0.174 µM. For the same molecule, in the experiment with HIV-1YU2 gp120 [11], the koff worked out at 0.0043 s⁻¹ and the on-rate (kon) came out at 380000 M⁻¹ s⁻¹.

Consider RNNI[Azp‑triazole‑ferrocene]WS (also called RNNIPWS) [UM22], for which the “IC50 (µM) … of HOS.CD4.CCR5 cells” value in experiment [2] is 11 µM. Also, the IC50 with HIV-1YU2 gp120 [9] was 0.123 µM. In the experiment with HIV-1YU2 gp120 [8], this molecule returned an IC50 of 0.181 µM. In addition, in the experiment with HIV-1YU2 gp120 [11], the koff was determined as 0.0068 s⁻¹ and the kon was 510000 M⁻¹ s⁻¹.

Take ENNI[Azp‑triazole‑ferrocene]WS-NH2 (Rink amide resin; also called ENNIPWS) [UM23]: the “IC50 (µM), pseudotype virus cell infection assay” value in experiment [7] is 6.6 µM. For the same molecule, the “IC50 (µM) … of HOS.CD4.CCR5 cells” value in experiment [2] came out at 5.8 µM. This molecule also displayed an IC50 with HIV-1YU2 gp120 [9] of 0.088 µM. This molecule also displayed an IC50 in the experiment with HIV-1YU2 gp120 [8] of 0.165 µM. In the experiment with HIV-1YU2 gp120 [11], this molecule registered a koff of 0.0034 s⁻¹ and a kon of 130000 M⁻¹ s⁻¹.

RINNI[Azp‑triazole‑ferrocene] (also called RINNIP) [UM16] had a Kd with HIV-1YU2 gp120 [11] above 10 µM.

Regarding NI[Azp‑triazole‑ferrocene]WS (also called NIPWS) [UM41], in the experiment with HIV-1YU2 gp120 [12], the “-TΔS” value was -1.6 kcal/mol and the ΔH is -6.1 kcal/mol.

B2: UM24 (peptide)
peptide: XNNIPWS
modifications: not fully specified; residue 1 is citrulline (Cit); proline 5 is a 1,2,3-triazole-modified proline (Azp) 4-substituted with ferrocene
notes: Rink amide resin; also called CitNNIPWS
Take B2: the “IC50 (µM), pseudotype virus cell infection assay” value in experiment [7] is 4.9 µM. This molecule displayed an IC50 in the experiment with HIV-1YU2 gp120 [9] of 0.081 µM. Besides, in the experiment with HIV-1YU2 gp120 [10], the “-TΔS” value was found to be 6.3 kcal/mol and the ΔH was -16.7 kcal/mol. The same molecule had a Kd in the experiment with HIV-1YU2 gp120 [13] of 0.021 µM.

Turning to NNI[Azp‑triazole‑ferrocene]WS-NH2 (Rink amide resin; also called NNIPWS) [UM31], the “IC50 (µM), pseudotype virus cell infection assay” value in experiment [7] is 10 µM. In addition, the “IC50 (µM) … of HOS.CD4.CCR5 cells” value in experiment [2] was determined as 36 µM. Besides, in the experiment with HIV-1YU2 gp120 [9], the IC50 came out at 5 µM. Besides, in the experiment with HIV-1YU2 gp120 [10], the “-TΔS” value was 4.1 kcal/mol and the ΔH is -13.8 kcal/mol. The same molecule gave an IC50 with HIV-1YU2 gp120 [14] of 16 µM.

With ENI[Azp‑triazole‑ferrocene]WS (also called ENIPWS) [UM33], in the experiment with HIV-1YU2 gp120 [11], the koff is 0.0018 s⁻¹ and the kon is 1100 M⁻¹ s⁻¹.

As for RNI[Azp‑triazole‑ferrocene]WS (also called RNIPWS) [UM32], in the experiment with HIV-1YU2 gp120 [11], the off-rate (koff) amounted to 0.0031 s⁻¹ and the association rate constant (kon) worked out at 3300 M⁻¹ s⁻¹.

INI[Azp‑triazole‑ferrocene]WS-NH2 (Rink amide resin; also called INIPWS) [UM35]: the “IC50 (µM), pseudotype virus cell infection assay” value in experiment [7] was found to be 17 µM. For the same molecule, in experiment [2], the “IC50 (µM) … of HOS.CD4.CCR5 cells” value was found to be 17 µM. The same molecule gave a Kd with HIV-1YU2 gp120 [15] above 10 µM.

NNI[Azp‑triazole‑ferrocene]W (also called NNIPW) [UM17]: in the experiment with HIV-1YU2 gp120 [10], the “-TΔS” value was found to be 3.3 kcal/mol and the ΔH was -13.2 kcal/mol. Besides, the “IC50 (read off the curve)” value in the experiment with HIV-1YU2 gp120 [16] is around 3 µM.

Turning to INNI[Azp‑triazole‑ferrocene]W-NH2 (Rink amide resin; also called INNIPW) [UM15], the “IC50 (µM), pseudotype virus cell infection assay” value in experiment [7] is 7.2 µM. In addition, the “IC50 (µM) … of HOS.CD4.CCR5 cells” value in experiment [2] is 6.9 µM. Moreover, in the experiment with HIV-1YU2 gp120 [10], the “-TΔS” value stood at 6.6 kcal/mol and the ΔH was -16.6 kcal/mol.

Values taken from patent US20130274178A1 (PHILADELPHIA HEALTH AND EDUCATION CORPORATION D B A DREXEL …, published 2013).
